From paper PMC11507749

Biological target: iLID-YFP-SNAP (2×Strep-iLID-EYFP-SNAP)
Test: light-induced membrane recruitment in GUVs

- half-time of dissociation from the membrane in the dark: 61.2 s
- half-time of dissociation in the dark: 41.8 s
Substance: mCherry-SspB(micro)
